Results on 2 molecules are retold here after article PMC3182237, “Downregulation of the Hsp90 System Causes Defects in Muscle Cells of Caenorhabditis Elegans” (PLoS ONE, 2011).

Holding throughout (settings): both partners purified
In test [1] the target is T1, DAF-21 (C. elegans, UniProt Q18688 1-702).
T1 construct: DAF-21, the Hsp90 homolog of Caenorhabditis elegans; also called Hsp90; wt-DAF-21; source: E. coli BL21-CodonPlus (DE3)-RIL, purified (HisTrap FF, ResourceQ, Superdex SEC); not shown: His tag (from the vector pET28b)
As to the kind of experiment: AUC; sedimentation velocity with fluorescence detection; fluorescein-labelled cofactor 300 nM, DAF-21 or variant 6 µM; with 4 mM AMP-PNP; 20 to 22°C, 42.000 r.p.m.; dc/dt analysis.

For test [2], the target named is T2, E292K-DAF-21 (C. elegans, UniProt Q18688 1-702, E292K).
T2 construct: DAF-21, the Hsp90 homolog of Caenorhabditis elegans, with the point mutation of the allele daf-21(p673); The mutation occurs in the nematode strain JT6130 (daf-21(p673)); The recombinant variant was made from the daf-21 cDNA; also called E292K variant; DAF-21 of daf-21(p673), strain JT6130; source: E. coli BL21-CodonPlus (DE3)-RIL, purified (HisTrap FF, ResourceQ, Superdex SEC); not shown: His …
The test is described as above.

Test [3] addresses T1, DAF-21. As to the kind of experiment: AUC; sedimentation velocity with fluorescence detection; fluorescein-labelled cofactor 300 nM, DAF-21 or variant 6 µM; no nucleotide; 20 to 22°C, 42.000 r.p.m.; dc/dt analysis.
Test [4] concerns the target T2, E292K-DAF-21. The description is as above.

B1: Cep23 (ZC395.10), fluorescein-labelled (natural protein, C. elegans, UniProt Q23280 1-175, looked up)
chain: MAKQPTVLWAQRESLVYLTIEVDEAKIEELKGEGNKLHFQGSSKTDKYEATLEFFDEIDPASVKHTGSSTRVVEITVQKKTPAWWPRLLQNKGKVHWLKVDFGKWKDEDEDDEAEDAGAGIGGGMANGFDLNQYMSQMGGAGGADFGGLEDDEEDDDMPDLEDNEEEEGKNGTRA
modifications: 5-carboxyfluorescein (N-succinimidyl ester) at lysine residues
notes: Cep23, the p23 cofactor of Hsp90 in Caenorhabditis elegans (ZC395.10); also called Labelled Cep23; source: E. coli BL21-CodonPlus (DE3)-RIL, purified (HisTrap FF, ResourceQ, Superdex SEC); not shown: His tag (from the vector pET28b)
With B1, the binding result in test [1] and in test [2] was “binds” in each case.

B2: STI-1, fluorescein-labelled (natural protein, C. elegans, UniProt O16259 1-320, looked up)
chain: MTDAAIAEKDLGNAAYKQKDFEKAHVHYDKAIELDPSNITFYNNKAAVYFEEKKFAECVQFCEKAVEVGRETRADYKLIAKAMSRAGNAFQKQNDLSLAVQWFHRSLSEFRDPELVKKVKELEKQLKAAERLAYINPELAQEEKNKGNEYFKKGDYPTAMRHYNEAVKRDPENAILYSNRAACLTKLMEFQRALDDCDTCIRLDSKFIKGYIRKAACLVAMREWSKAQRAYEDALQVDPSNEEAREGVRNCLRSNDEDPEKAKERSLADPEVQEILRDPGMRMILEQMSNDPGAVREHLKNPEIFQKLMKLRDAGVIQMR
modifications: 5-carboxyfluorescein (N-succinimidyl ester) at lysine residues
notes: STI-1, TPR-containing cofactor of Hsp90 in Caenorhabditis elegans; also called labelled STI-1; source: E. coli BL21-CodonPlus (DE3)-RIL, purified (HisTrap FF, ResourceQ, Superdex SEC); not shown: His tag (from the vector pET28b)
Turning to B2, the binding result in test [3] and in test [4] was “binds” in each case.
